Legend:
[1] = molecular target: RNAP core (Mtb);sigmaA;CarD;RbpA (Mycobacterium …, UniProt P9WGZ1;P9WGY9;P9WGY7;P9WGY5;P9WGI1;P9WJG3;P9WHJ5 …, L7M|||); experiment: cryo-EM
[2] = molecular target: RNAP core (Mtb);sigmaA;CarD;RbpA;WhiB7 (Mycobacterium …, UniProt P9WGZ1;P9WGY9;P9WGY7;P9WGY5;P9WGI1;P9WJG3;P9WHJ5;Q6MX01 …, L7M||||); experiment: cryo-EM

B1: whiB7 promoter (-70 to +30) (dsDNA)
DNA 1: CTGTACCGGCAAACGCGCAGGTCAGAAAATCGGTTGTGGTCAGCTGCTGCCACCGGTTAACCTCCAGGTCGCATTCTGCTGCCAGCCTGGAGATGGCATT
DNA 2: AATGCCATCTCCAGGCTGGCAGCAGAATGCGACCTGGAGGTTAACCGGTGGCAGCAGCTGACCACAACCGATTTTCTGACCTGCGCGTTTGCCGGTACAG
[1]
  binding result: binds
[2]
  binding result: binds
